Test results taken from paper PMC12487890.

target: interferon-induced transmembrane protein 3 (IFITM3), human, untagged (UniProt Q01628); assay: proximity ligation assay (anti-IFITM3 and anti-HA, confocal microscopy); details: HEK293T cells transfected with pCMV-IFITM3 (0.50 μg) and pBJ-97ZANef-HA WT or mutant (0.25 μg); mean of 6 to 12 cells per condition; parent: 20,209
Sequence of UniProt Q01628 (Q01628 whole entry): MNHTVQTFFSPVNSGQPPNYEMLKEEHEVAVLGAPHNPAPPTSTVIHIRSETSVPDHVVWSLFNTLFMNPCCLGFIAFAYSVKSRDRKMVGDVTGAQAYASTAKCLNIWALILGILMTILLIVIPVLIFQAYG

Going from “97ZA013 Nef-HA, wild type (HIV-1 clade C primary isolate) G2A” to “97ZA013 Nef-HA, wild type (HIV-1 clade C primary isolate) L165A; L166A”, the response (corrected total cell fluorescence) rises from 3000 to 12000.

Going from “97ZA013 Nef-HA, wild type (HIV-1 clade C primary isolate) M20A” to “97ZA013 Nef-HA, wild type (HIV-1 clade C primary isolate) R17A; R19A; R21A; R22A”, the response (corrected total cell fluorescence) falls from 17200 to 7580.

target: interferon-induced transmembrane protein 3 (IFITM3), human, untagged (UniProt Q01628); assay: co-immunoprecipitation (anti-HA IP, anti-IFITM3 immunoblot), IFITM3/HA band ratio; details: HEK293T cells cotransfected with pCMV-IFITM3 (0.50 μg) and pBJ-97ZA Nef-HA WT or mutant (0.25 μg); mean of two co-IPs from independent transfections; parent: 100

Compared with “97ZA013 Nef-HA, wild type (HIV-1 clade C primary isolate) E153K”, “97ZA013 Nef-HA, wild type (HIV-1 clade C primary isolate) M169V; Q171L” is higher in percent of parent: 73% for the first, 244% for the second.

First: 97ZA013 Nef-HA, wild type (HIV-1 clade C primary isolate) N163T; C164S
Second: 97ZA013 Nef-HA, wild type (HIV-1 clade C primary isolate) R192F; R193H
The percent of parent of the first is higher: 217% for the first, 188% for the second.

In the case of “97ZA013 Nef-HA, wild type (HIV-1 clade C primary isolate) S152D; E153K”, the percent of parent was 42%.

same assay, conditions: HEK293T cells cotransfected with pCMV-IFITM3 (0.50 μg) and pBJ-97ZANef-HA WT or mutant (0.25 μg), mean of two co-IPs from independent transfections

Going from “97ZA013 Nef-HA, wild type (HIV-1 clade C primary isolate) G2A” to “97ZA013 Nef-HA, wild type (HIV-1 clade C primary isolate) L165A; L166A”, the percent of parent rises from 1% to 87%.

Compared with “97ZA013 Nef-HA, wild type (HIV-1 clade C primary isolate) M20A”, “97ZA013 Nef-HA, wild type (HIV-1 clade C primary isolate) R17A; R19A; R21A; R22A” is lower in percent of parent: 124% for the first, 16% for the second.
